T1: NHERF3_4, Q5T2W1
T1 sequence (Q5T2W1 373-468, limits assumed, looked up): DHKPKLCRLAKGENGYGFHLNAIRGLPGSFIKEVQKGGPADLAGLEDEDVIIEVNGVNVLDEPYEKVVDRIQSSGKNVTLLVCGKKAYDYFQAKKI

T2: NHERF3_3, Q5T2W1
T2 sequence (Q5T2W1 238-333, limits assumed, looked up): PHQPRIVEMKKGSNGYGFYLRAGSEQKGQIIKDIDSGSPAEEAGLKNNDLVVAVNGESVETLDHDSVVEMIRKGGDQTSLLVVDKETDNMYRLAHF

T3: SIPA1L2, Q9P2F8
T3 sequence (Q9P2F8 945-1036, limits assumed, looked up): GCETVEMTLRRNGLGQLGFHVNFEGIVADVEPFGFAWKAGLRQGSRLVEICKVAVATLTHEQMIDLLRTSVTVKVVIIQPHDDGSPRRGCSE

T4: SNTB1, Q13884
T4 sequence (Q13884 107-205, limits assumed, looked up): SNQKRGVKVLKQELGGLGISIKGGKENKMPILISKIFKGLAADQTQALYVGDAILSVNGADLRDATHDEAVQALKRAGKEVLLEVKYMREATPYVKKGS

T5: GRIP1_5, Q9Y3R0
T5 sequence (Q9Y3R0 568-668, limits assumed, looked up): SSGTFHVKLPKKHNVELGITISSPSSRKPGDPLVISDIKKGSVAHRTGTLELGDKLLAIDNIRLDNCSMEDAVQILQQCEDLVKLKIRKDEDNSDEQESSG

T6: LIN7C, Q9NUP9
T6 sequence (Q9NUP9 88-185, limits assumed, looked up): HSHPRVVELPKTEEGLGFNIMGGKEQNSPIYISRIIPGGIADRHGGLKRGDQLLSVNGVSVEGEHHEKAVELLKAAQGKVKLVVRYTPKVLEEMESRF

T7: SHANK1, Q9Y566
T7 sequence (Q9Y566 658-767, limits assumed, looked up): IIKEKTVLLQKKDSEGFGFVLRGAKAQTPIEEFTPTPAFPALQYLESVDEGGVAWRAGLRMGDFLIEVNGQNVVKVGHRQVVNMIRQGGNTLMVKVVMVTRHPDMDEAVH

T8: DVL3, Q92997
T8 sequence (Q92997 244-331, limits assumed, looked up): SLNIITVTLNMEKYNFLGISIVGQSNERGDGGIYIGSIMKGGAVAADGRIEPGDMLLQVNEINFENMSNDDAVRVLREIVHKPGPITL

T9: MPDZ_5, O75970
T9 sequence (O75970 695-796, limits assumed, looked up): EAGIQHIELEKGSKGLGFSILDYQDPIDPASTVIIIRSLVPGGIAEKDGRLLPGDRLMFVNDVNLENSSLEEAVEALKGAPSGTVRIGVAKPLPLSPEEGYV

T10: DFNB31_3, Q9P202
T10 sequence (Q9P202 811-907, limits assumed, looked up): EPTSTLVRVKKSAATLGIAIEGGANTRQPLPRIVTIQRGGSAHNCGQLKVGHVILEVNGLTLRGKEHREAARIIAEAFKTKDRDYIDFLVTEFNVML

T11: DLG3_2, Q92796
T11 sequence (Q92796 221-321, limits assumed, looked up): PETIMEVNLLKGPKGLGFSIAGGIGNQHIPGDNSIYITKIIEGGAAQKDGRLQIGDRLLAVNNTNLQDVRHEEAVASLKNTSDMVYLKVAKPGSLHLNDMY

T12: LNX2_2, Q8N448
T12 sequence (Q8N448 334-432, limits assumed, looked up): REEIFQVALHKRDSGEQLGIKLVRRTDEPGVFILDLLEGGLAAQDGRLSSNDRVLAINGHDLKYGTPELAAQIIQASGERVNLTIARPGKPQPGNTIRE

B1: CLDN3, O15551 (peptide)
chain: GTGYDRKDYV
B2: PTPN18, Q99952 (peptide)
chain: RDPPAEWTRV

These binders were tested against T1, NHERF3_4, Q5T2W1 (assay: holdup assay). Conditions: plain residues with an end cap or a label only (N-terminal biotin on a linker: ado-ado).
Design: key: below the threshold = too weak to quantify, mostly under pKd 3.1 to 4

B1 was tested. Which pKd did it give?
Its pKd is “below the threshold”.

Which pKd does the source give for B2 here?
The pKd was “below the threshold”.

The binders below were run against GORASP1, Q9BQQ3 (assay: holdup assay). Conditions: plain residues with an end cap or a label only (N-terminal biotin on a linker: ado-ado).
Design: key: below the threshold = too weak to quantify, mostly under pKd 3.1 to 4

Chain of GORASP1, Q9BQQ3 (Q9BQQ3 1-208): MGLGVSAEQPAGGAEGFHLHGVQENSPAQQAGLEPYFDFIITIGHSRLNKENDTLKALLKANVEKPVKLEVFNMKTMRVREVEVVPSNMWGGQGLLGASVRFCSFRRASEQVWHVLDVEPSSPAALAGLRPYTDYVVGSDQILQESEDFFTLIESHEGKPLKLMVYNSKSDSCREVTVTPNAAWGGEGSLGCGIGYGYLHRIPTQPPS

B1 was tested. Which pKd did it give?
The pKd was “below the threshold”.

How did the pKd turn out when B2 was run?
The pKd was 4.07.

Each binder was assayed against SCRIB_2, Q14160 (assay: holdup assay). Conditions: plain residues with an end cap or a label only (N-terminal biotin on a linker: ado-ado).
Design: key: below the threshold = too weak to quantify, mostly under pKd 3.1 to 4

Chain of SCRIB_2, Q14160 (Q14160 857-960): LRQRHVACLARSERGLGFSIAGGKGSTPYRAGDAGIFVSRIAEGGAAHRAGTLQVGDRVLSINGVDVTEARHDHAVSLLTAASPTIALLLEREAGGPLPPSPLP

For B1, which pKd is on record?
The pKd was “below the threshold”.

How did the pKd turn out when B2 was run?
The pKd was 4.12.

What follows are binders tested against T2, NHERF3_3, Q5T2W1 (assay: holdup assay). Conditions: plain residues with an end cap or a label only (N-terminal biotin on a linker: ado-ado).
Design: key: below the threshold = too weak to quantify, mostly under pKd 3.1 to 4

Which pKd does the source give for B1 here?
The pKd was “below the threshold”.

For B2, which pKd is on record?
The pKd was 3.87.

Each binder was assayed against T3, SIPA1L2, Q9P2F8 (assay: holdup assay). Conditions: plain residues with an end cap or a label only (N-terminal biotin on a linker: ado-ado).
Design: key: below the threshold = too weak to quantify, mostly under pKd 3.1 to 4

For B1, which pKd is on record?
The pKd was “below the threshold”.

B2 was tested. Which pKd did it give?
The pKd was “below the threshold”.

These binders were tested against T4, SNTB1, Q13884 (assay: holdup assay). Conditions: plain residues with an end cap or a label only (N-terminal biotin on a linker: ado-ado).
Design: key: below the threshold = too weak to quantify, mostly under pKd 3.1 to 4

With B1 as the binder, how does the pKd read?
The pKd was “below the threshold”.

With B2 as the binder, how does the pKd read?
The pKd was 4.37.

These binders were tested against TJP1_2, Q07157 (assay: holdup assay). Conditions: plain residues with an end cap or a label only (N-terminal biotin on a linker: ado-ado).
Design: key: below the threshold = too weak to quantify, mostly under pKd 3.1 to 4

Chain of TJP1_2, Q07157 (Q07157 181-274): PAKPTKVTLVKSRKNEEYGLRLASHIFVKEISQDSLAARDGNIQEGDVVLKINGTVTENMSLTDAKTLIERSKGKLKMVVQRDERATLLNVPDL

For B1, which pKd is on record?
The pKd was 3.6.

With B2 as the binder, how does the pKd read?
Its pKd is “below the threshold”.

The binders below were run against T5, GRIP1_5, Q9Y3R0 (assay: holdup assay). Conditions: plain residues with an end cap or a label only (N-terminal biotin on a linker: ado-ado).
Design: key: below the threshold = too weak to quantify, mostly under pKd 3.1 to 4

Which pKd does the source give for B1 here?
The pKd was “below the threshold”.

Which pKd does the source give for B2 here?
Its pKd is “below the threshold”.

These binders were tested against LNX1_2, Q8TBB1 (assay: holdup assay). Conditions: plain residues with an end cap or a label only (N-terminal biotin on a linker: ado-ado).
Design: key: below the threshold = too weak to quantify, mostly under pKd 3.1 to 4

Chain of LNX1_2, Q8TBB1 (Q8TBB1 371-470): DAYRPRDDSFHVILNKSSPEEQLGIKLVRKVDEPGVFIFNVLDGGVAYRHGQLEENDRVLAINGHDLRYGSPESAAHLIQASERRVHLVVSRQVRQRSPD

For B1, which pKd is on record?
The pKd was “below the threshold”.

How did the pKd turn out when B2 was run?
The pKd was 3.47.

Each binder was assayed against AHNAK1, Q09666 (assay: holdup assay). Conditions: plain residues with an end cap or a label only (N-terminal biotin on a linker: ado-ado).
Design: key: below the threshold = too weak to quantify, mostly under pKd 3.1 to 4

Chain of AHNAK1, Q09666 (Q09666 4-100): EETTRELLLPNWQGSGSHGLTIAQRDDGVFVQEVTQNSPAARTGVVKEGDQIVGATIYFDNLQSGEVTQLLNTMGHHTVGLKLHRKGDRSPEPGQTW

For B1, which pKd is on record?
The pKd was “below the threshold”.

With B2 as the binder, how does the pKd read?
Its pKd is “below the threshold”.

The binders below were run against T6, LIN7C, Q9NUP9 (assay: holdup assay). Conditions: plain residues with an end cap or a label only (N-terminal biotin on a linker: ado-ado).
Design: key: below the threshold = too weak to quantify, mostly under pKd 3.1 to 4

How did the pKd turn out when B1 was run?
Its pKd is “below the threshold”.

Which pKd does the source give for B2 here?
The pKd was “below the threshold”.

Each binder was assayed against T7, SHANK1, Q9Y566 (assay: holdup assay). Conditions: plain residues with an end cap or a label only (N-terminal biotin on a linker: ado-ado).
Design: key: below the threshold = too weak to quantify, mostly under pKd 3.1 to 4

How did the pKd turn out when B1 was run?
The pKd was “below the threshold”.

Which pKd does the source give for B2 here?
Its pKd is 5.05.

What follows are binders tested against T8, DVL3, Q92997 (assay: holdup assay). Conditions: plain residues with an end cap or a label only (N-terminal biotin on a linker: ado-ado).
Design: key: below the threshold = too weak to quantify, mostly under pKd 3.1 to 4

For B1, which pKd is on record?
The pKd was 3.72.

For B2, which pKd is on record?
The pKd was “below the threshold”.

Each binder was assayed against FRMPD4, Q14CM0 (assay: holdup assay). Conditions: plain residues with an end cap or a label only (N-terminal biotin on a linker: ado-ado).
Design: key: below the threshold = too weak to quantify, mostly under pKd 3.1 to 4

Chain of FRMPD4, Q14CM0 (Q14CM0 67-160): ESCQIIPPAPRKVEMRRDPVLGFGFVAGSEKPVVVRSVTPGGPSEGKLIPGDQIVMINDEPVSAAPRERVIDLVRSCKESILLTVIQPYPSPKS

Which pKd does the source give for B1 here?
The pKd was 3.56.

For B2, which pKd is on record?
The pKd was 4.07.

The binders below were run against T9, MPDZ_5, O75970 (assay: holdup assay). Conditions: plain residues with an end cap or a label only (N-terminal biotin on a linker: ado-ado).
Design: key: below the threshold = too weak to quantify, mostly under pKd 3.1 to 4

For B1, which pKd is on record?
The pKd was “below the threshold”.

With B2 as the binder, how does the pKd read?
Its pKd is “below the threshold”.

These binders were tested against T10, DFNB31_3, Q9P202 (assay: holdup assay). Conditions: plain residues with an end cap or a label only (N-terminal biotin on a linker: ado-ado).
Design: key: below the threshold = too weak to quantify, mostly under pKd 3.1 to 4

Which pKd does the source give for B1 here?
Its pKd is 4.06.

B2 was tested. Which pKd did it give?
The pKd was “below the threshold”.

These binders were tested against GRIP2_3, Q9C0E4 (assay: holdup assay). Conditions: plain residues with an end cap or a label only (N-terminal biotin on a linker: ado-ado).
Design: key: below the threshold = too weak to quantify, mostly under pKd 3.1 to 4

Chain of GRIP2_3, Q9C0E4 (Q9C0E4 238-339): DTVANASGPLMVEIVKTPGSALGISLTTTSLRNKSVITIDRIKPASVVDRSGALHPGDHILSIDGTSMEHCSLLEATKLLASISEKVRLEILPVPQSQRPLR

For B1, which pKd is on record?
Its pKd is “below the threshold”.

For B2, which pKd is on record?
The pKd was “below the threshold”.

These binders were tested against GORASP2, Q9H8Y8 (assay: holdup assay). Conditions: plain residues with an end cap or a label only (N-terminal biotin on a linker: ado-ado).
Design: key: below the threshold = too weak to quantify, mostly under pKd 3.1 to 4

B1 was tested. Which pKd did it give?
Its pKd is 3.57.

How did the pKd turn out when B2 was run?
The pKd was 4.11.

What follows are binders tested against T11, DLG3_2, Q92796 (assay: holdup assay). Conditions: plain residues with an end cap or a label only (N-terminal biotin on a linker: ado-ado).
Design: key: below the threshold = too weak to quantify, mostly under pKd 3.1 to 4

Which pKd does the source give for B1 here?
Its pKd is “below the threshold”.

Which pKd does the source give for B2 here?
Its pKd is 4.2.

The binders below were run against MAGI3_2, Q5TCQ9 (assay: holdup assay). Conditions: plain residues with an end cap or a label only (N-terminal biotin on a linker: ado-ado).
Design: key: below the threshold = too weak to quantify, mostly under pKd 3.1 to 4

Chain of MAGI3_2, Q5TCQ9 (Q5TCQ9 398-503): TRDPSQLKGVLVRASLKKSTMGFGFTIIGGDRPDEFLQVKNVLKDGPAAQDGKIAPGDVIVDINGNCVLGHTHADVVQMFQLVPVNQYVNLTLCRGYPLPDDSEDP

How did the pKd turn out when B1 was run?
Its pKd is “below the threshold”.

How did the pKd turn out when B2 was run?
The pKd was 4.27.

These binders were tested against GRID2IP_1, A4D2P6 (assay: holdup assay). Conditions: plain residues with an end cap or a label only (N-terminal biotin on a linker: ado-ado).
Design: key: below the threshold = too weak to quantify, mostly under pKd 3.1 to 4

Chain of GRID2IP_1, A4D2P6 (A4D2P6 1-87): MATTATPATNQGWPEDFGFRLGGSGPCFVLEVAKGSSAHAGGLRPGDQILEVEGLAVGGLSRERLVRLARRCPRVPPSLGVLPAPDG

How did the pKd turn out when B1 was run?
Its pKd is “below the threshold”.

With B2 as the binder, how does the pKd read?
The pKd was “below the threshold”.

These binders were tested against T12, LNX2_2, Q8N448 (assay: holdup assay). Conditions: plain residues with an end cap or a label only (N-terminal biotin on a linker: ado-ado).
Design: key: below the threshold = too weak to quantify, mostly under pKd 3.1 to 4

With B1 as the binder, how does the pKd read?
The pKd was 4.04.

With B2 as the binder, how does the pKd read?
Its pKd is 5.15.

Each binder was assayed against Inadl_2, Q8NI35 (assay: holdup assay). Conditions: plain residues with an end cap or a label only (N-terminal biotin on a linker: ado-ado).
Design: key: below the threshold = too weak to quantify, mostly under pKd 3.1 to 4

Chain of Inadl_2, Q8NI35 (Q8NI35 238-335): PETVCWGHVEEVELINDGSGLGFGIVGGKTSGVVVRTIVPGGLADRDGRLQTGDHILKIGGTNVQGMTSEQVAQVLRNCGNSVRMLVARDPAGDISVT

For B1, which pKd is on record?
The pKd was “below the threshold”.

Which pKd does the source give for B2 here?
Its pKd is “below the threshold”.

What follows are binders tested against FRMPD2_3, Q68DX3 (assay: holdup assay). Conditions: plain residues with an end cap or a label only (N-terminal biotin on a linker: ado-ado).
Design: key: below the threshold = too weak to quantify, mostly under pKd 3.1 to 4

Chain of FRMPD2_3, Q68DX3 (Q68DX3 1073-1166): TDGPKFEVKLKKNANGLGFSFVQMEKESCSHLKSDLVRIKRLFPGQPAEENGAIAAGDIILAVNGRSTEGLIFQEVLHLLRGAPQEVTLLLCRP

How did the pKd turn out when B1 was run?
The pKd was “below the threshold”.

How did the pKd turn out when B2 was run?
The pKd was “below the threshold”.

The binders below were run against PICK1, Q9NRD5 (assay: holdup assay). Conditions: plain residues with an end cap or a label only (N-terminal biotin on a linker: ado-ado).
Design: key: below the threshold = too weak to quantify, mostly under pKd 3.1 to 4

Chain of PICK1, Q9NRD5 (Q9NRD5 17-115): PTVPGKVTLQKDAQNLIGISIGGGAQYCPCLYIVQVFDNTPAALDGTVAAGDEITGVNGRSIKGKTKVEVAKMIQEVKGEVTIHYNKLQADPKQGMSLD

B1 was tested. Which pKd did it give?
Its pKd is “below the threshold”.

With B2 as the binder, how does the pKd read?
The pKd was “below the threshold”.

From PMC9482650, “Quantitative fragmentomics allow affinity mapping of interactomes” (Nature Communications, 2022)
